Laboratory results reported in paper PMC2998453.

Columns and labels:
[1] = molecular target: mCAT-1, murine cationic amino acid transporter (ecotropic receptor) (mouse (endogenous in C17.2 NSCs and NIH 3T3 fibroblasts; Mus dunni fibroblasts in the infectious center assay)) (UniProt Q09143)
[2] = molecular target: mCAT-1, murine cationic amino acid transporter (ecotropic receptor) (mouse (endogenous in C17.2 NSCs and NIH 3T3 fibroblasts; Mus dunni fibroblasts in the infectious center assay)) (UniProt Q09143); remark: listed apart in the source
[3] = molecular target: mCAT-1, murine cationic amino acid transporter (ecotropic receptor) (mouse (endogenous in C17.2 NSCs and NIH 3T3 fibroblasts; Mus dunni fibroblasts in the infectious center assay)) (UniProt Q09143); remark: listed apart in the source

UniProt Q09143, sequence (Q09143 whole entry): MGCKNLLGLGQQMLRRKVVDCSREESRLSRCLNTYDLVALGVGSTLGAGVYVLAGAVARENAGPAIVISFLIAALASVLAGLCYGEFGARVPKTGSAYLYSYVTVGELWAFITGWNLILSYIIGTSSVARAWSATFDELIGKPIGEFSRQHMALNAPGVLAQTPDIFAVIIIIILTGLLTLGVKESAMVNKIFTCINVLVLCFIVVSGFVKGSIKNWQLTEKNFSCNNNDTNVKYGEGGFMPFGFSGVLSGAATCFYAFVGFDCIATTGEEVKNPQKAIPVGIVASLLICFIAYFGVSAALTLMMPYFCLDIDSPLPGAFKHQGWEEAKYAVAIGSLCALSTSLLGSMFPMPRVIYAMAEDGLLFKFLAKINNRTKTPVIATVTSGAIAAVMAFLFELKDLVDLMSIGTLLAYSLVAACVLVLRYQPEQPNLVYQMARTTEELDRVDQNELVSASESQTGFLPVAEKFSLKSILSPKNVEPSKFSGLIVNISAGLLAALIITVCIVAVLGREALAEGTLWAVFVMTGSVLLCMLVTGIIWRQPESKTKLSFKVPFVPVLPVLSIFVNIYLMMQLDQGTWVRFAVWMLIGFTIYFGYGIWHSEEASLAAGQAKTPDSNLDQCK

“CasBrE SU (surface subunit of the CasBrE Env, made from the CasES vector without the TM subunit) (domain or fragment)” was tested, and the infectious center assay: CasES+4070A-NSCs on DunniAm; infectious center efficiency (foci per 100 NSCs divided by plating efficiency) [1] was 109%, the infectious center assay: CasES+4070A-NSCs seeded on 4070A-infected dunni fibroblasts (DunniAm); vector-positive foci per 100 NSCs seeded (foci per 100 NSCs seeded) [1] was 18 and the virus titration: vector titre of CasES+4070A-NSC supernatant on 4070A-infected 3T3 cells (3T3Am, amphotropic receptor blocked) against naive 3T3 cells (orders of magnitude) [2] was over 3. The superinfection interference: reduction of the titre of the ecotropic virus Fr57E on CasES-NSCs (without 4070A) against control NSCs [3] was 1 log and the superinfection interference: reduction of the titre of the ecotropic virus Fr57E on CasES-NSCs infected with 4070A [3] was 5 logs.
